According to US10941182 (Amgen, dated 2021):
Starred links: 1 amine or outer side, 2 acyl side, 3 side chain; linkers in the order of their positions; H or OH if unused. Non-standard residues stand in square brackets, D forms with d. Primed or numbered codes have the meaning given here. *: point of attachment. NPeg9 = PEG amine from Pra click product: 32-amino-3,6,9,12,15,18,21,24,27,30-decaoxadotriacontyl, NCCOCCOCCOCCOCCOCCOCCOCCOCCOCCOCC*; Pra′ = its azide, alkyne or alkene has reacted where a group follows in round brackets; dBip = N[C@H](Cc1ccc(-c2ccccc2)cc1)C(=O)O; Oic = O=C(O)[C@@H]1C[C@@H]2CCCC[C@@H]2N1; Phe(4-Cl) = N[C@@H](Cc1ccc(Cl)cc1)C(=O)O; dPhe(4-Cl) = N[C@H](Cc1ccc(Cl)cc1)C(=O)O; Phe(4-I) = N[C@@H](Cc1ccc(I)cc1)C(=O)O; γGlu = O=C(O)[C@H](CCC(=O)[*:2])N[*:1]; 2Nal = N[C@@H](Cc1ccc2ccccc2c1)C(=O)O; d1Nal = N[C@H](Cc1cccc2ccccc12)C(=O)O; NMeR = CN[C@@H](CCCNC(=N)N)C(=O)O; Tridecanoyl = CCCCCCCCCCCCC(=O)*; hArg = N=C(N)NCCCC[C@H](N)C(=O)O; Cha = N[C@@H](CC1CCCCC1)C(=O)O; NMeL = CN[C@@H](CC(C)C)C(=O)O; pGlu = O=C1CC[C@@H](C(=O)O)N1; Nle = CCCC[C@H](N)C(=O)O; Orn = NCCC[C@H](N)C(=O)O; Aib = CC(C)(N)C(=O)O; Mpa = O=C(O)CCS

T1: human APJ receptor (human, UniProt P35414 1-380)
T1 sequence (looked up): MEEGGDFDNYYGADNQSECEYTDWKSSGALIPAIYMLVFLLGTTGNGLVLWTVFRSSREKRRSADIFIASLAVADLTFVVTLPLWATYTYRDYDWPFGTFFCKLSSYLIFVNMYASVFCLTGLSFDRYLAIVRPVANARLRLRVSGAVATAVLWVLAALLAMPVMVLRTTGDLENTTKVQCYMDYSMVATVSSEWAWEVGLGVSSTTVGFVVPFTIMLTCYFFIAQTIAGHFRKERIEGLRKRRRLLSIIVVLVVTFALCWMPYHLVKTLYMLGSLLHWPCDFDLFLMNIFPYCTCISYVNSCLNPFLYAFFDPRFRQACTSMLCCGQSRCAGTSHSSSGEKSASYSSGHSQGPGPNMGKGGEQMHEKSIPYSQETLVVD

T2: rat APJ receptor (rat, UniProt Q9JHG3 1-377)
T2 sequence (looked up): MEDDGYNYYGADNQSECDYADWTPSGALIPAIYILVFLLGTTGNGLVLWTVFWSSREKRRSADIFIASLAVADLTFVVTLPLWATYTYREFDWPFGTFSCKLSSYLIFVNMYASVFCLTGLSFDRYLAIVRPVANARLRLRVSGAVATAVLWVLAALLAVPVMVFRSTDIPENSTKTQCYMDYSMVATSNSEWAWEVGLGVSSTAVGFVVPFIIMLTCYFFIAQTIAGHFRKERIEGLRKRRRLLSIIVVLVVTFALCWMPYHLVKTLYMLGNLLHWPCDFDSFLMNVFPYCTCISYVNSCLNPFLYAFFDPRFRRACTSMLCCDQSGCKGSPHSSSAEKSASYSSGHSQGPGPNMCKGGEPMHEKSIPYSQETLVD

T3: rat APJ receptor (rat, UniProt Q9JHG3 1-377)
T3 sequence (looked up): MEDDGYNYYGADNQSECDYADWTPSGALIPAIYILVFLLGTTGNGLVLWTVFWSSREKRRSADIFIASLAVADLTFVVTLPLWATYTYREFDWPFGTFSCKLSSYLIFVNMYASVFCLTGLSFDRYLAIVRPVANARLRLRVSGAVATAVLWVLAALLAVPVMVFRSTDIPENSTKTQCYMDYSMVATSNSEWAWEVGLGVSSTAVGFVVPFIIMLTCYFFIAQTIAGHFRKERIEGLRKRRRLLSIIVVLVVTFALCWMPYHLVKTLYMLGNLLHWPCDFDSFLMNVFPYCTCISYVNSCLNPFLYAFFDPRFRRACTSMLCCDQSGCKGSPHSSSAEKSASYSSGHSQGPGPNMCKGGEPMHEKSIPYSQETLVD


What was measured:
Test in all cases: cell-based or functional assay
human APJ receptor = target: T1, human APJ receptor
rat APJ receptor [1] = target: T2, rat APJ receptor
rat APJ receptor [2] = target: T3, rat APJ receptor; remark: listed apart in the source

Row | Binder | EC50 Human APJ Receptor (human APJ receptor) | EC50 Rat APJ Receptor (rat APJ receptor [1]) | EC50 Rat APJ Receptor (µM), GTPγS assay (rat APJ receptor [2])
1 | Ac-[dR]QRP[hArg][NMeL]SHKG[Oic][Phe(4-I)]P[dBip]-OH (SMILES CC(=O)N[C@H](CCCNC(=N)N)C(=O)N[C@@H](CCC(N)=O)C(=O)N[C@@H](CCCNC(=N)N)C(=O)N1CCC[C@H]1C(=O)N[C@@H](CCCCNC(=N)N)C(=O)N(C)[C@@H](CC(C)C)C(=O)N[C@@H](CO)C(=O)N[C@@H](Cc1c[nH]cn1)C(=O)N[C@@H](CCCCN)C(=O)NCC(=O)N1[C@H](C(=O)N[C@@H](Cc2ccc(I)cc2)C(=O)N2CCC[C@H]2C(=O)N[C@H](Cc2ccc(-c3ccccc3)cc2)C(=O)O)C[C@@H]2CCCC[C@@H]21) [apelin polypeptide SEQ ID NO: 52] | 0.623 nM | 1.14 nM | –
2 | Ac-Q[dR]P[NMeR][Cha]SHKG[Oic][Nle][d1Nal]-OH (SMILES CCCC[C@H](NC(=O)[C@@H]1C[C@@H]2CCCC[C@@H]2N1C(=O)CNC(=O)[C@H](CCCCN)NC(=O)[C@H](Cc1c[nH]cn1)NC(=O)[C@H](CO)NC(=O)[C@H](CC1CCCCC1)NC(=O)[C@H](CCCNC(=N)N)N(C)C(=O)[C@@H]1CCCN1C(=O)[C@@H](CCCNC(=N)N)NC(=O)[C@H](CCC(N)=O)NC(C)=O)C(=O)N[C@H](Cc1cccc2ccccc12)C(=O)O) [apelin polypeptide SEQ ID NO: 54] | 30.1 nM | 312 nM | –
3 | Ac-[dR]Q[hArg]P[dR][NMeL]SHKG[Oic][Phe(4-I)]P[dBip]-OH [apelin polypeptide SEQ ID NO: 50] | 1.43 nM | 1.68 nM | –
4 | Ac-RQRP[hArg][NMeL]SHKG[Oic][Phe(4-I)]P[dBip]-OH [apelin polypeptide SEQ ID NO: 51] | 0.37 nM | 1.26 nM | –
5 | Ac-[Orn]F[hArg][hArg]QRP[hArg][Cha]SHKGP[Nle][Phe(4-Cl)]-OH (SMILES CCCC[C@H](NC(=O)[C@@H]1CCCN1C(=O)CNC(=O)[C@H](CCCCN)NC(=O)[C@H](Cc1c[nH]cn1)NC(=O)[C@H](CO)NC(=O)[C@H](CC1CCCCC1)NC(=O)[C@H](CCCCNC(=N)N)NC(=O)[C@@H]1CCCN1C(=O)[C@H](CCCNC(=N)N)NC(=O)[C@H](CCC(N)=O)NC(=O)[C@H](CCCCNC(=N)N)NC(=O)[C@H](CCCCNC(=N)N)NC(=O)[C@H](Cc1ccccc1)NC(=O)[C@H](CCCN)NC(C)=O)C(=O)N[C@@H](Cc1ccc(Cl)cc1)C(=O)O) [apelin polypeptide SEQ ID NO: 48] | 0.287 nM | 0.486 nM | –
6 | [pGlu]RP[hArg][Cha][Pra′](NPeg9)HKG[Oic][Nle]P[Phe(4-Cl)]-OH [apelin polypeptide SEQ ID NO: 96] | 2.02 nM | 14.6 nM | –
7 | Ac-[Orn]F[hArg][hArg]QRP[hArg][NMeL]SHKG[Oic][Phe(4-I)]P[dBip]-OH (SMILES CC(=O)N[C@@H](CCCN)C(=O)N[C@@H](Cc1ccccc1)C(=O)N[C@@H](CCCCNC(=N)N)C(=O)N[C@@H](CCCCNC(=N)N)C(=O)N[C@@H](CCC(N)=O)C(=O)N[C@@H](CCCNC(=N)N)C(=O)N1CCC[C@H]1C(=O)N[C@@H](CCCCNC(=N)N)C(=O)N(C)[C@@H](CC(C)C)C(=O)N[C@@H](CO)C(=O)N[C@@H](Cc1c[nH]cn1)C(=O)N[C@@H](CCCCN)C(=O)NCC(=O)N1[C@H](C(=O)N[C@@H](Cc2ccc(I)cc2)C(=O)N2CCC[C@H]2C(=O)N[C@H](Cc2ccc(-c3ccccc3)cc2)C(=O)O)C[C@@H]2CCCC[C@@H]21) [apelin polypeptide SEQ ID NO: 47] | 0.416 nM | 0.63 nM | –
8 | Ac-[dQ][hArg]P[NMeR][Cha]SHKG[Oic][Nle]P[dPhe(4-Cl)]-OH (SMILES CCCC[C@H](NC(=O)[C@@H]1C[C@@H]2CCCC[C@@H]2N1C(=O)CNC(=O)[C@H](CCCCN)NC(=O)[C@H](Cc1c[nH]cn1)NC(=O)[C@H](CO)NC(=O)[C@H](CC1CCCCC1)NC(=O)[C@H](CCCNC(=N)N)N(C)C(=O)[C@@H]1CCCN1C(=O)[C@H](CCCCNC(=N)N)NC(=O)[C@@H](CCC(N)=O)NC(C)=O)C(=O)N1CCC[C@H]1C(=O)N[C@H](Cc1ccc(Cl)cc1)C(=O)O) [apelin polypeptide SEQ ID NO: 55] | 31.6 nM | 145 nM | –
9 | Ac-[Orn]F[hArg][hArg]QRP[hArg][Cha]SHKGP[Nle][2Nal]-OH (SMILES CCCC[C@H](NC(=O)[C@@H]1CCCN1C(=O)CNC(=O)[C@H](CCCCN)NC(=O)[C@H](Cc1c[nH]cn1)NC(=O)[C@H](CO)NC(=O)[C@H](CC1CCCCC1)NC(=O)[C@H](CCCCNC(=N)N)NC(=O)[C@@H]1CCCN1C(=O)[C@H](CCCNC(=N)N)NC(=O)[C@H](CCC(N)=O)NC(=O)[C@H](CCCCNC(=N)N)NC(=O)[C@H](CCCCNC(=N)N)NC(=O)[C@H](Cc1ccccc1)NC(=O)[C@H](CCCN)NC(C)=O)C(=O)N[C@@H](Cc1ccc2ccccc2c1)C(=O)O) [apelin polypeptide SEQ ID NO: 49] | 0.159 nM | 0.291 nM | –
10 | Ac-[Orn]F[hArg][hArg]Q[hArg]P[NMeR][Cha]SHKG[Oic][Nle][Phe(4-Cl)]-OH (SMILES CCCC[C@H](NC(=O)[C@@H]1C[C@@H]2CCCC[C@@H]2N1C(=O)CNC(=O)[C@H](CCCCN)NC(=O)[C@H](Cc1c[nH]cn1)NC(=O)[C@H](CO)NC(=O)[C@H](CC1CCCCC1)NC(=O)[C@H](CCCNC(=N)N)N(C)C(=O)[C@@H]1CCCN1C(=O)[C@H](CCCCNC(=N)N)NC(=O)[C@H](CCC(N)=O)NC(=O)[C@H](CCCCNC(=N)N)NC(=O)[C@H](CCCCNC(=N)N)NC(=O)[C@H](Cc1ccccc1)NC(=O)[C@H](CCCN)NC(C)=O)C(=O)N[C@@H](Cc1ccc(Cl)cc1)C(=O)O) [apelin polypeptide SEQ ID NO: 57] | 0.412 nM | 0.787 nM | –

The next lines start with the values.

Row | EC50 Human APJ Receptor (human APJ receptor) | EC50 Rat APJ Receptor (rat APJ receptor [1]) | EC50 Rat APJ Receptor (µM), GTPγS assay (rat APJ receptor [2]) | Binder
11 | 2.08 nM | 4.57 nM | – | Ac-[Orn]F[hArg][hArg]Q[hArg]P[dR][NMeL]SHKG[Oic][Nle][Phe(4-Cl)]-OH (SMILES CCCC[C@H](NC(=O)[C@@H]1C[C@@H]2CCCC[C@@H]2N1C(=O)CNC(=O)[C@H](CCCCN)NC(=O)[C@H](Cc1c[nH]cn1)NC(=O)[C@H](CO)NC(=O)[C@H](CC(C)C)N(C)C(=O)[C@@H](CCCNC(=N)N)NC(=O)[C@@H]1CCCN1C(=O)[C@H](CCCCNC(=N)N)NC(=O)[C@H](CCC(N)=O)NC(=O)[C@H](CCCCNC(=N)N)NC(=O)[C@H](CCCCNC(=N)N)NC(=O)[C@H](Cc1ccccc1)NC(=O)[C@H](CCCN)NC(C)=O)C(=O)N[C@@H](Cc1ccc(Cl)cc1)C(=O)O) [apelin polypeptide SEQ ID NO: 59]
12 | 8.06 nM | 45.4 nM | – | {20K mPEGacetamide}-[Mpa]RQRP[hArg][Cha]SHKG[Oic][Nle]P[Phe(4-Cl)]-OH (numbers in words are those of the source; also: 20 kDa PEG conjugate) [apelin polypeptide SEQ ID NO: 100]
13 | 5.18 nM | 5.98 nM | – | QRPRLSHKGXFPX ({Acetyl-NH}Q[hArg]Pr[NMeLeu]SHKG[Oic][pI-Phe]P[D-Bip]{COOH}) [apelin polypeptide SEQ ID NO: 53]
14 | 1.17 nM | 5.32 nM | – | Ac-[Orn]F[hArg][hArg]Q[hArg][Oic][dR][Cha]SHKG[Oic][Nle][Phe(4-Cl)]-OH (SMILES CCCC[C@H](NC(=O)[C@@H]1C[C@@H]2CCCC[C@@H]2N1C(=O)CNC(=O)[C@H](CCCCN)NC(=O)[C@H](Cc1c[nH]cn1)NC(=O)[C@H](CO)NC(=O)[C@H](CC1CCCCC1)NC(=O)[C@@H](CCCNC(=N)N)NC(=O)[C@@H]1C[C@@H]2CCCC[C@@H]2N1C(=O)[C@H](CCCCNC(=N)N)NC(=O)[C@H](CCC(N)=O)NC(=O)[C@H](CCCCNC(=N)N)NC(=O)[C@H](CCCCNC(=N)N)NC(=O)[C@H](Cc1ccccc1)NC(=O)[C@H](CCCN)NC(C)=O)C(=O)N[C@@H](Cc1ccc(Cl)cc1)C(=O)O) [apelin polypeptide SEQ ID NO: 58]
15 | – | – | 0.00299 µM | Tridecanoyl-[γGlu][dQ]RP[NMeR][Cha]SHKG[Oic][Nle][Aib][Phe(4-Cl)]-OH (SMILES CCCCCCCCCCCCC(=O)N[C@@H](CCC(=O)N[C@H](CCC(N)=O)C(=O)N[C@@H](CCCNC(=N)N)C(=O)N1CCC[C@H]1C(=O)N(C)[C@@H](CCCNC(=N)N)C(=O)N[C@@H](CC1CCCCC1)C(=O)N[C@@H](CO)C(=O)N[C@@H](Cc1c[nH]cn1)C(=O)N[C@@H](CCCCN)C(=O)NCC(=O)N1[C@H](C(=O)N[C@@H](CCCC)C(=O)NC(C)(C)C(=O)N[C@@H](Cc2ccc(Cl)cc2)C(=O)O)C[C@@H]2CCCC[C@@H]21)C(=O)O) [modified apelin polypeptide SEQ ID NO: 532]
